This series in a line: soluble on expression in E. coli; label from the status in PepcDB or PDB records.
Turning to “MSLSQAHFSSWRGHQEFLAPHLIEGRAVRAFIGWAGVMIYDPTLDVIALAKEYARQYQCFAETCGRCAPGKFGGKILFDLLEKIDQGRGEESDLERLVEVGKLMMTTSKCEVGKTTPLPILDLLEAYRPLFVEALGNRSRKERSKKERYIAKITAPCIDACPAHVDIPAYIEGVRDHLLGDSLAATRKSMPLAQVCGRVCPHPCESACRRGDLDEPISIMELKRLGADYEKERHGGFIHPYPPKPRRKDKRVAIIGAGPAGLSSAYYLALEGIMSDVFEALPVLGGEVSVGVPEYRMPIDRYYHDIEAIKSLGVSFWTNHFVSAKELDEMRQKYDAIILATGARISKKLGVKGEEESLGGYAPAIPWLDQINLATKFNLAALPDLRGKSVVCVGGGFTSMDVVRCAVRLGAKRIVMLYRRDEATLIQNTSKEEYHEALEEGVEFLFQCAVQEIKSCGGEIKALLVEEYEVVYEEGARKPSLRRIEREPLFLECDLLIPAVSQEVDRSFIPKEWNLESTSWGSFKTNGKDFSTTLRGVFAAGDCEKGPLTIVNAVGQGKRAASVVSRFLEDGEITLTPEEEMEDWLKKEGVYDRSMPVVGWLAGLVRQESHKEEPLKRREDFREVNQGLSMQEAFAESERCMRCYYISMVALEGHHHHHH”, the “soluble on expression in E. coli” value is reported as “not soluble”.
The entry for “MSLSQAVSSPLYAAIDLGSNSFHMLVVRHIDGSVQTMAKIKRKVRLAAGLDEHNALSLDAMQRGWDCLSLFAERLQDIPAENIRIVGTATLRTATNAGEFIAKANQILGHPIDVISGEEEAATIYKGVAHTSGGLGRRLVVDIGGASTELIIGEGFEAKALTSLKMGCVTWLERHFKDRQLTATNFNNAILAAKQMLDPILTQYTELGWNVCVGASGTVQALQEIMLAQGMDEVITLTKLKRLQKQAMLADHLEELDIEGLTLERALVFPSGLSILIAIFESLNIEAMTLAGGALREGLVYEMVQDLRQEDIRARTIRCVQTRYQIDSAYGDQVATLASKLLAQCGGEAWINEPQAEMLLRTAAKLHEIGLTIDFKKGGEHSAYLLQHLDLPGYTRAQKHYLGEIVRRYREQLTSLPEQYALSGTSGKRVLRLLRLAVLLSHRRSPALEPMVELSAQEDKLTLTLDGEWLAKNPLTRTELELEANRQTDIGWPLSIECHEGGSHHHHHH” is “soluble”.
The entry for “MSLSQPQPPSRLLVMKFGGTNMQSAHAIRHSASLAGRSVREGVKVVVVVSAMAGVTNGLLHLADAAQSGDIARANDEIAALRTRHFTAAQELGAAPDSETVRELRELHETLRQAVYGVYLLRELTPRSRDLIVAFGERLSAPLMSLALEQSGLRARHLTGGEAGILTDTNFGNARPLPGTYERVGDRLSGFLSAGVTPVIAGFMGETEQGAITTLGRGGTDFSATIVGKALGADEVWAWKDVDGVMSADPRVVGDASNIGVLSYGEVMELAYFGAKVLHPLAVTPLQDSGIPLRVKSAADPDFAGTLVRSQAEEIPGRPVKAVTAIKNVSLLTVTGAGVLGVPEVIASVFTAIARENITLLMVSQSSSMSNVSLAVPSADAARALQALRAGLSSELNVEETNGVAVLAIVGSGMRGQQGVSARLFTALASEDINILMISQGSSELNISVALSGEEVDRATAAVHAAFTLSQPEGHHHHHH” is “not soluble”.
As for “MSLSRKYFGTDGIRGRVGEFPITPDFVLKLGWAVGMAFRRQGNCRVLIGKDTRSSGYMFESAFEAGLSASGADTLLLGPMPTPGIAYLTRTFHAEAGVVISASHNPHDDNGIKFFSGQGTKLPDDVELMIEELLDAPMTVVESARLGKVSRINDAAGRYIEFCKSSVPTSTDFNGLKVVLDCANGATYKIAPSVFRELGAEVTVLAASPNGLNINDKCGSTHLDGLQAAVVEHHADLGIAFDGDGDRVMMVDHTGAVVDGDELLFLIARDLQESGRLQGGVVGTLMSNLGLELALQELHIPFVRAKVGDRYVMAELLARNWMLGGENSGHIVCCQNTTTGDAIIAALQVLMALKHRGQTLAEARQGIRKCPQVLINVRFKGENDPLEHPSVKEASVRVTEQMGGRGRVLLRKSGTEPLVRVMVEGDEEASVRAHAEQLAKIVSEVCAEGHHHHHH”, the “soluble on expression in E. coli” value was “soluble”.
The entry for “MSLSSAQQWSYVRQLQREIRRSDVLDLPLEKLPVVVFDLETSGFYPDQGDRILSIGAVKVVGLTIQEEETFYSVVHTDTVPPENILELTGLSVEELEAAPPLTSVLESFYAFIRHSTLVAHHASHEKAFMSHVTWQTMKLPFEHRVIDTSFLTKIVAPQELVTLDDCCAYYSIPVQNRHHAFEDSLMTAKLWIAAIAAAREAGEGHHHHHH” is “not soluble”.
Next, “MSLSSPQFEENSFECPVEIGISNMCGKRDSMQDTSVVITNFLGIGFHLLSLFDGHSGIYSSCFCASQFPNCFANILSKNPQQSIEDALIHSFKEMNQKINEYKFNDGTAANVVLITPQRYFIANVGDSRCILVKKDSIIILNEDHTINNPDEVQRIRKLNGFIDHSKVNGEIVLTRTLGDIQCSSVCSCIPQITCHERGIDDICIVLCCDGVFDVLSNELVGEICRKKSNESASVLSSLIRDIAYNNGCKDNISCIVCKLMSEGHHHHHH”: “soluble”; “MSLSSVYTMKRIWLQKDKKAYQAWHELMEKAELQTTEALDYTVGIYDDTALIASGSLSGKTIKCVAVCKKYQSENLLTQLVVHLLEKLREENQLHSFLYTKPKNEQIFQSLGFQKVVANQEVLFMEQGKPDFADYLGYLTQHKKAGPASSIVMNANPFTKGHQYLVEKAAQESPHVYVFVLSEDKSLFSKEARFAMVQKGVAHLPNVTVLSTEDYLVSSATFPTYFLKEKAPLEVAAIQATLDATLFKERIAPILEIQQRYVGEEPYSEVTAVYNQAMQQVFGQTITLTIVPRLASDGELISATKVRKAMAEGDKETLKKFLPATSYQYLVEHKKLMREGGSHHHHHH”: “soluble”.
Next, “MSLSSYTVLAVDDSEINLKLIVHTLQPFGFQIFTAESAADARNVLLTNRVDVLLLDVSMPDQDGFSFCRELREIERFKLLPILFITGINREVGFDEAISHGGDDFIQKPFQPKELIAKIRAFIRIKILQDELLEQKKNYERELIMARKVQQELLPEKELEWNGVSLSTIFQPLMQIGGDYTDAWIEDDSLHIFIADCSGHGPSAALLAAMLKMQVSSLSPDQSLQEKVQTLRHNLEKILPDEFSITFFYGILHKDLSFEYSNGGHPAPMLYQNGEVSILPGMGPLIIPIEINVKEEFKSVQLQKDSYMLLYTDGATEISDKSMNILGEDKLKKIFQESVSIGGDILVSMMESILAHSDRGTNDDDIAMMVLKLEGHHHHHH”: “soluble”; “MSLSTARIMLVDDHPIVREGYRRLIERRPGYAVVAEAADAGEAYRLYRETTPDIVVMDLTLPGPGGIEATRHIRQWDGAARILIFTMHQGSAFALKAFEAGASGYVTKSSDPAELVQAIEAILAGRRAMSPDIAQEIAEERVEGRATAIADLSPRETEILRMLASGMTSDEIAAGLCLSVKTVQNNHYQIKAKLGARTDAHLVWVAIEAGLVREGHHHHHH”: “soluble”.
“MSLSTMLVAEDLSAVGGISLSSALPVLTAMQYDVAALPTSLLSTHTSGYGTPAVVDLSTWLPQVFAHWTRAQLHFDQALIGYVGSVALCQQITTYLEQQTLSLLVVDPVLGDLGQLYQGFDQDYVAAMRQLIQQADVILPNTTEAALLTGAPYQVTPDLEVILPALQAQLKTGAHAVITDVQRADQIGCAWLDEAGHVQYCGARRLPGHYNGTGDTLAAVIAGLLGRGYPLAPTLARANQWLNMAVAETIAQNRTDDRQGVALGDLLQAILALNEGHHHHHH”: the “soluble on expression in E. coli” value is on record as “soluble”.
Next, “MSLSVSDELQLFAQEIQRFLSPNTLRNLARDVGFVQRTSKYQAKDLVALCVWMNQNIATTSLTQLSSCLEASTEVLISPEGLNQRFNKAAVQFLQHILAELLSRKLTSSIPISSPYTSVFKRIRILDSTAFQLPDVFSSVYPGAGGCSHTAGIKIQLEYDLLSGQFLHIHTGPGKQHDRTYGSLCAPTVTANDLCIRDLGYFHLKDLQYIQDKEAYYISRIKSNTRMYQKNPNPDYFQDGRIKKGTEYIQIDIETLMNSLQPGQTCEVADAYVGMNDKVPARVIVHRLTKQQQQKRLQDQAVREKKKGMKYSPRSKRLSGINVYMTNTPTDIVPMGQVHDWYSLRWQIEILFKTWKSFFQIHHCKKIKAERLECHLYGQLIAILLCSSIMFQMRQLLLMKKKRELSEYKAIYMIKDYFLLLFQTIQKNTQELSKVLLRLFNLLQQNGRKSHRYEKKTVFDILGVVYNSMSDNQAEGHHHHHH”: “not soluble”.
